Experimental data as given in paper PMC4668074, “NDK Interacts with FtsZ and Converts GDP to GTP to Trigger FtsZ Polymerisation - A Novel Role for NDK” (PLoS ONE, 2015).

How the values were obtained:
[1] = target: T1, 6xHis-MtFtsZ (Mycobacterium tuberculosis FtsZ) (Mycobacterium tuberculosis, UniProt P9WN95 1-379); assay: pull-down; settings: both partners purified
T1 construct: also called MtZ
T1 sequence: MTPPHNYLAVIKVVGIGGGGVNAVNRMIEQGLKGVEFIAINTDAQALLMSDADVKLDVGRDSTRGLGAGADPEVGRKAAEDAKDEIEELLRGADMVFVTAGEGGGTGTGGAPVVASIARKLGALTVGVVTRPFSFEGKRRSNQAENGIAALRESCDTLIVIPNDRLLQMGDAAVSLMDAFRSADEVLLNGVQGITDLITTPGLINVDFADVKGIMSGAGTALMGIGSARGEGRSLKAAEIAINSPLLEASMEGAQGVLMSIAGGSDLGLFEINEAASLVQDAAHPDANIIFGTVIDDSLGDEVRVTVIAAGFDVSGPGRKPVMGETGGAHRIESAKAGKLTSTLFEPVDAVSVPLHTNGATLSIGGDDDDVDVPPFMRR

[2] = target: T2, 6xHis-EcFtsZ (FtsZ of E. coli) (E. coli, UniProt P0A9A6 1-383); assay: pull-down; settings: both partners purified
T2 sequence (looked up): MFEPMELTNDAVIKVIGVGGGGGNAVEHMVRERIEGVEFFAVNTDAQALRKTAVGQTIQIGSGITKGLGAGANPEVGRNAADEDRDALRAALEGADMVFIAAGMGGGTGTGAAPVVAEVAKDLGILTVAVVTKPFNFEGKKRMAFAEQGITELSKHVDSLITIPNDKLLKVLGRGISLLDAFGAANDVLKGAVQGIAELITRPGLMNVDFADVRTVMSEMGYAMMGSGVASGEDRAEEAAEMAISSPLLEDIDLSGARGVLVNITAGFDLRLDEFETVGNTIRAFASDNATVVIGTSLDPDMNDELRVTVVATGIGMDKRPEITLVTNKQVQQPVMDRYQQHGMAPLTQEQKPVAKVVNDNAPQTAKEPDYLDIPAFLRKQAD

B1: GST-MtNDK (Mycobacterium tuberculosis nucleoside diphosphate kinase) (enzyme)
chain: MTERTLVLIKPDGIERQLIGEIISRIERKGLTIAALQLRTVSAELASQHYAEHEGKPFFGSLLEFITSGPVVAAIVEGTRAIAAVRQLAGGTDPVQAAAPGTIRGDFALETQFNLVHGSDSAESAQREIALWFPGA
notes: also called GST-NDK; MtNDK-Wt
B1: binds [1]; binds [2].
